Reference: patent publication US20250101135A1 (Hoffmann-La Roche, published 2025)
Values belong to the binder of their own block, whether it stands above or below them.

How the values were obtained:
[1] = target: T1, human CD19 on B cell lymphoma and leukemia cell lines (human, UniProt P15391 20-556); test: flow cytometry on Nalm6 cells
T1 construct: also called SU-DHL-8; Nalm6
T1 sequence: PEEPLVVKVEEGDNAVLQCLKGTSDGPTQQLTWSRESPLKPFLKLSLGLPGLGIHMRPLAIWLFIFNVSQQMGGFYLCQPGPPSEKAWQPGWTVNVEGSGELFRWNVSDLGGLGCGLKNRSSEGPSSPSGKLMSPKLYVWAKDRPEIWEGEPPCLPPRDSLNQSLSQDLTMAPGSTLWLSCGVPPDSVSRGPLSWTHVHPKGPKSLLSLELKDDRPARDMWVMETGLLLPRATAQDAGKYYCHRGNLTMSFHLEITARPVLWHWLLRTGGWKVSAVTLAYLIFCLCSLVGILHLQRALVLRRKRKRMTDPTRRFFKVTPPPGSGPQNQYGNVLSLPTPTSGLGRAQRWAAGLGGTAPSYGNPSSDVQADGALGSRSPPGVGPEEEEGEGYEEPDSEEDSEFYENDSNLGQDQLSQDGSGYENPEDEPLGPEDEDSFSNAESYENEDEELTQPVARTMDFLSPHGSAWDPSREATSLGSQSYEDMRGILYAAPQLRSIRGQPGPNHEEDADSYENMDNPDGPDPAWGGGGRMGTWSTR
Method: (§1) Cells were washed once with 200 μL DPBS and pellets were resuspended. […] Cells were washed twice with 200 μL 4° C. FACS buffer and then resuspended in 50 μL/well DPBS containing 1% formaldehyde. The same or the next day cells were resuspended in 100 μL FACS-buffer and acquired using 5-laser LSR-FORTESSA® (BD Bioscience with DIVA software) or 3-laser Miltenyi Quant Analyzer 10 (Mitenyi Biotec) and Flow Jo (FlowJo X 10.0.7).

[2] = target: T1, human CD19 on B cell lymphoma and …; test: flow cytometry on OCI-Ly18 cells
Method: as §1

[3] = target: T2, monomeric human CD19 antigen Fc(kih) fusion molecule (human, UniProt P0DOX5 223-449 = IgG part); test: SPR Biacore T200, captured via anti-human Fab, human CD19-Fc(kih) analyte
T2 construct: also called monomeric CD19-Fc; human CD19-Fc(kih)
Method: Anti-human Fab antibody (Biacore, Freiburg/Germany) was directly coupled on a CM5 chip at pH 5.0 using the standard amine coupling kit (Biacore, Freiburg/Germany). The immobilization level was approximately 8000 RU. […] Recombinant human CD19-Fc(kih) was passed at a concentration range from 7.8 to 500 nM (2-fold dilution) with a flow of 30 μL/minutes through the flow cells over 120 seconds. The dissociation was monitored for 120/1800 seconds. Bulk refractive index differences were corrected for by subtracting the response obtained on reference flow cell.
Affinity constants for the interaction were determined by fitting to a 1:1 Langmuir binding.

[4] = target: T1, human CD19 on B cell lymphoma and …; test: flow cytometry on Toledo cells
Method: as §1

[5] = target: T1, human CD19 on B cell lymphoma and …; test: flow cytometry on SU-DHL-8 cells
Method: as §1

[6] = target: T3, human 4-1BB (CD137) on cells (human, UniProt Q07011 24-255); test: flow cytometry, activated human PBMC, CD4+ T cells (panel title MFI CD4), PE anti-human IgG Fc secondary
T3 construct: whole, on cells; also called 4-1BB+CD8+; 4-1BB+CD4+
T3 sequence (Q07011 24-255): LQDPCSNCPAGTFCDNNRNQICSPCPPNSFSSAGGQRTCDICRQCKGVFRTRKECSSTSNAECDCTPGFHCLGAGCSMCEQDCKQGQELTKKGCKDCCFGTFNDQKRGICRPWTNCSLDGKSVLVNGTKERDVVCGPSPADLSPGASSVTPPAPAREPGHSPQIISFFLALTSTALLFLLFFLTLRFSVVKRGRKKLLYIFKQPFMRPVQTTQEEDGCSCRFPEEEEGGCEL
From the text: Gates were set on living CD45+CD3+CD4+ or CD45+CD3+CD8+ T cells and MFI of PE-conjugated AffiniPure anti-human IgG IgG Fcγ-fragment-specific goat F(ab′)2 fragment were blotted against the titrated concentration of targeted split trimeric 4-1BB ligand Fc fusion variants.

[7] = target: T4, human CEA (CEACAM5) on tumor cells (human, UniProt P06731 35-685); test: flow cytometry on CEA-expressing MKN45 cells
T4 construct: also called MKN45; MKN-45
T4 sequence: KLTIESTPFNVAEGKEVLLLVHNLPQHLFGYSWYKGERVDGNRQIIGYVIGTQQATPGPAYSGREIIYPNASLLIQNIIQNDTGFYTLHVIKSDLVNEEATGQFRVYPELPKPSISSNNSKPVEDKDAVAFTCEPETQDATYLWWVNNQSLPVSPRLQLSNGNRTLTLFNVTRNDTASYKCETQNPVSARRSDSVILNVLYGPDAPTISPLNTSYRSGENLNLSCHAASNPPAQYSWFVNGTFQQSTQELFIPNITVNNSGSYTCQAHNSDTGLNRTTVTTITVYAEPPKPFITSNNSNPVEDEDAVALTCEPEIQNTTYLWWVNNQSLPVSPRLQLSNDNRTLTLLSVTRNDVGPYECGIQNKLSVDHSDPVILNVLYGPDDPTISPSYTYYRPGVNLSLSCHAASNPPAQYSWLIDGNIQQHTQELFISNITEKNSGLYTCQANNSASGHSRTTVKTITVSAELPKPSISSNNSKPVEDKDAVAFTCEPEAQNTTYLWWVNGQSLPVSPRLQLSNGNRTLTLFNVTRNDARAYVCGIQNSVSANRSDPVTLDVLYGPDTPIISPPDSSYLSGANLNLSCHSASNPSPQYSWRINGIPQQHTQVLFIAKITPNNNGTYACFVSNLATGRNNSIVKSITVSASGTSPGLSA
Method: Cells were harvested, counted, checked for viability and re-suspended at 2×10⁶ cells/ml in FACS buffer (100 μl PBS 0.1% BSA). […] Binding curves and EC50 values were obtained and calculated using GraphPadPrism5.

EC50 [1]: 0.1 nM
EC50 [2]: 0.07 nM
Kd [3]: 12.3 nM
koff [3]: 0.000261 s⁻¹
kon [3]: 21200 M⁻¹ s⁻¹
EC50 [4]: 0.06 nM
EC50 [5]: 0.09 nM
binding result [6]: no binding (tested: about 300 nM)
B1: anti-CD19(8B8-018) huIgG1 PGLALA (control G) (antibody, V domains shown)
VH: QVQLVQSGAEVKKPGASVKVSCKASGYTFTDYIMHWVRQAPGQGLEWMGYINPYNDGSKYTEKFQGRVTMTSDTSISTAYMELSRLRSDDTAVYYCARGTYYYGSALFDYWGQGTTVTVSS
VL: DIVMTQTPLSLSVTPGQPASISCKSSQSLENPNGNTYLNWYLQKPGQSPQLLIYRVSKRFSGVPDRFSGSGSGTDFTLKISRVEAEDVGVYYCLQLTHVPYTFGQGTKLEIKR

EC50 [7]: 1.5 µg/mL
B2: Humanized variant 1 of T84.66 IgG (T84.66-LCHA) (antibody, V domains shown)
VH: QVQLVQSGAEVKKPGSSVKVSCKASGFNIKDTYMHWVRQAPGQGLEWMGRIDPANGNSKYVPKFQGRVTITADTSTSTAYMELSSLRSEDTAVYYCAPFGYYVSDYAMAYWGQGTLVTVSS
VL: EIVLTQSPATLSLSPGERATLSCRAGESVDIFGVGFLHWYQQKPGQAPRLLIYRASNRATGIPARFSGSGSGTDFTLTISSLEPEDFAVYYCQQTNEDPYTFGQGTKLEIK
notes: IgG
